The data set has as its target interferon gamma (IFN-γ) (UniProt P01579 24-161). As to the kind of experiment: electrochemical impedance aptasensor (Bode phase angle); spiked pleural fluid, IFN-γ 0.2-2.2 pg/mL; linear 0.2-1.2 pg/mL; LOD 0.09 (abstract) or 0.11 pg/mL; no Kd; aptamer-free control sensor only slight change; Aptamer folded in 0.1 M phosphate buffer, 10 mM KCl, 2 mM MgCl2 (90 °C 10 min, 4 °C 5 min, RT 10 min); IFN-γ in spiked pleural fluid; EIS in phosphate buffer/PBS pH 7.4; binding temperature not stated. The following applies: chain copies: 2.

Sequence of interferon gamma (IFN-γ) (P01579 24-161): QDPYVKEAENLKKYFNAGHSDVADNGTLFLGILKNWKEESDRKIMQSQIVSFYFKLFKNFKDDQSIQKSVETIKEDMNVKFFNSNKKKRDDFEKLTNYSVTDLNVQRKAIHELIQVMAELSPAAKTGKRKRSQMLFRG

B1: 29-mer anti-IFN-γ aptamer (ssDNA)
DNA: CGGCGAAGGCACGTGTGGGGTGGTCGCGT
modifications: 5' thiol (5ThioMC6-D, printed as 5thiolMCS-D)
B1: the binding result is listed as “binds”.

These data come from article PMC10745820, “Bode Phase Angle Signaling of a TB Disease Biomarker”.
